According to the RNAGym collection of RNA variant scans (doi:10.1073/pnas.2313332121):
Fewer inactive variants are shown than the library holds.

B1: TPR 5TU (parent)
chain: GGAUCUUCUCGAUCUAACAAAAAAGACAAAUCUGCCACAAAGCUUGAGAGCAUCUUCGGAUGCAGAGGCGGCAGCCUUCGGUGGCGCGAUAGCGCCAACGUUCUCAACUAUGACACGCAAAACGCGUGCUCCGUUGAAUGGAGUUUAUCAUG

Variants of: B1
Experiment: polymerase ribozyme fitness, log enrichment relative to wild type (log ratio); higher = more active; in vitro selection for triplet polymerase activity
Procedure, shortened: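 Fitness is a logarithmic measure of how a genotype enriched relative to the wild type, with replicate averages weighted by inverse variance. The logarithm uses base 2, and enrichment came from Illumina sequencing of input and output libraries. Those libraries were PCR-built, transcribed mutants of each subunit of a heterodimeric triplet polymerase ribozyme, passed through one triplicate in vitro selection round that included frozen incubation at −7 °C, gel excision of extended constructs and streptavidin-bead capture. Genotypes were kept only if they had ≥10 input reads and ≥1 read per output.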

Variant	polymerase ribozyme fitness (log ratio)
G133U U135G	-4.04
U144A U145A	-0.541
G143A U145A	-2.03
G140U U144C	-3.28
G141C G143C	≤ -4.2
G143C U146A	-3.65
U146C U151G	≤ -4.2
U134A G140A	-3.58
C132U U139G G140A	1.22
A147U U148A	-2.81
C149U A150G	-2.95
A138C A142G	-3.66
G133U U135A U139G U144G A150U	-4.1
G141A A147C	-3.63
C131A A138C U139G	-3.67
A137U U145A A147C	≤ -4.2
A138C U144G	-3.7
U146C A150U	0.851
U134C U144G	0.895
G140C U144G	-3.51

Variant	polymerase ribozyme fitness (log ratio)
G136C U146C	-2.93
C132G G133U	-2.9
G141U U146A	0.37
G140A G141A	-3.15
G133U U148G	-4.1
U130G	-2.99
G143C	-1.78
G143U	-1.84
G143A	-0.315
G140U G141C	-3.07
U144G	0.948
U144C	0.0778
U144A	-0.043
G136U G143C	-3.26
U134A A142G U144G	-2.83
U135G	-3.19
U135C	-1.38
U135A	-0.939
A137G G141C	-2.74
U135C U145C	-2.51

Variant	polymerase ribozyme fitness (log ratio)
U135G A137U U139A U151G	≤ -4.2
U139G C149G	-3.88
U134A	-2.25
U134C	0.0692
U134G	-2.37
A147G	-0.913
A147C	0.176
A147U	1.1
G152A	-1.77
G152C	-2.58
G152U	-2.19
G133C U144C C149U	-3.98
C131G G133U	-3.77
A137U U144G	-4.2
U135C U151A	≤ -4.2
G143U G152A	-3.69
C131U U148C	-2.73
U144C U145C	-0.39
C132U U145G	-0.815
